Experimental data from the supplement of paper PMC9112550, “Optimization of the antimicrobial peptide Bac7 by deep mutational scanning” (BMC Biology, 2022).
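Further: peptides expressed intracellularly from a pBAD plasmid library in pooled LB shake-flask culture, induced with 0.3% L-arabinose, DNA abundance read by NGS, three biological replicates, DESeq2 with apeglm shrinkage.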

The sequences below were run on Escherichia coli TOP10 (assay: shrunken log2 fold change of peptide-encoding DNA abundance (4.5 h post-induction vs induction); higher = less antimicrobial activity (less host growth inhibition)). Details: time post-induction: 4.5 h; library: site-saturation at positions 5, 18, 19, 20.
With RRIRWRPPRLPRPRPRPKRLPRP the “shrunken log2 fold change” value was 2.54. In the case of RRIRWRPPRLPRPRPRPKRSPRP, the “shrunken log2 fold change” value is reported as 0.08. In the case of RRIRWRPPRLPRPRPRPKSVPRP, the “shrunken log2 fold change” value is reported as -0.0882. For RRIRWRPPRLPRPRPRPKTGPRP, the “shrunken log2 fold change” value was 0.491. In the case of RRIRWRPPRLPRPRPRPKTHPRP, the “shrunken log2 fold change” value is reported as 0.293. In the case of RRIRWRPPRLPRPRPRPKTVPRP, the “shrunken log2 fold change” value is reported as 0.227. RRIRWRPPRLPRPRPRPKVEPRP was tested, and the “shrunken log2 fold change” value was -0.0433. With RRIRWRPPRLPRPRPRPKVMPRP the “shrunken log2 fold change” value was -0.207. RRIRWRPPRLPRPRPRPKVPPRP was tested, and the “shrunken log2 fold change” value was -0.0143. In the case of RRIRWRPPRLPRPRPRPKWHPRP, the “shrunken log2 fold change” value is reported as 0.184. With RRIRWRPPRLPRPRPRPKWIPRP the “shrunken log2 fold change” value was -0.0267. RRIRWRPPRLPRPRPRPKYEPRP was tested, and the “shrunken log2 fold change” value was -0.0182. For RRIRWRPPRLPRPRPRPKYNPRP, the “shrunken log2 fold change” value was -0.558. RRIRWRPPRLPRPRPRPLCGPRP was tested, and the “shrunken log2 fold change” value was 1.71. In the case of RRIRWRPPRLPRPRPRPLDPPRP, the “shrunken log2 fold change” value is reported as 0.0629. RRIRWRPPRLPRPRPRPLEYPRP was tested, and the “shrunken log2 fold change” value was -0.152. With RRIRWRPPRLPRPRPRPLFGPRP the “shrunken log2 fold change” value was 0.352. For RRIRWRPPRLPRPRPRPLFSPRP, the “shrunken log2 fold change” value was 0.0976. RRIRWRPPRLPRPRPRPLGCPRP was tested, and the “shrunken log2 fold change” value was 0.438. RRIRWRPPRLPRPRPRPLGVPRP was tested, and the “shrunken log2 fold change” value was 0.459. For RRIRWRPPRLPRPRPRPLHIPRP, the “shrunken log2 fold change” value was -0.465. In the case of RRIRWRPPRLPRPRPRPLHMPRP, the “shrunken log2 fold change” value is reported as -0.0711. For RRIRWRPPRLPRPRPRPLHSPRP, the “shrunken log2 fold change” value was 0.215. With RRIRWRPPRLPRPRPRPLHWPRP the “shrunken log2 fold change” value was 0.296. For RRIRWRPPRLPRPRPRPLKTPRP, the “shrunken log2 fold change” value was 0.453. RRIRWRPPRLPRPRPRPLLCPRP was tested, and the “shrunken log2 fold change” value was 0.15. For RRIRWRPPRLPRPRPRPLLSPRP, the “shrunken log2 fold change” value was 0.148. For RRIRWRPPRLPRPRPRPLLTPRP, the “shrunken log2 fold change” value was 0.324. With RRIRWRPPRLPRPRPRPLMDPRP the “shrunken log2 fold change” value was 0.185. For RRIRWRPPRLPRPRPRPLMVPRP, the “shrunken log2 fold change” value was -0.0319. For RRIRWRPPRLPRPRPRPLNVPRP, the “shrunken log2 fold change” value was -0.0654. With RRIRWRPPRLPRPRPRPLPIPRP the “shrunken log2 fold change” value was -0.0952. In the case of RRIRWRPPRLPRPRPRPLRAPRP, the “shrunken log2 fold change” value is reported as 1.19. For RRIRWRPPRLPRPRPRPLTDPRP, the “shrunken log2 fold change” value was -0.0316. For RRIRWRPPRLPRPRPRPLTEPRP, the “shrunken log2 fold change” value was 0.251. RRIRWRPPRLPRPRPRPLTFPRP was tested, and the “shrunken log2 fold change” value was -0.501. With RRIRWRPPRLPRPRPRPLTMPRP the “shrunken log2 fold change” value was 0.0382. RRIRWRPPRLPRPRPRPLTQPRP was tested, and the “shrunken log2 fold change” value was 0.307. For RRIRWRPPRLPRPRPRPLVSPRP, the “shrunken log2 fold change” value was 1.59. In the case of RRIRWRPPRLPRPRPRPLWGPRP, the “shrunken log2 fold change” value is reported as 0.08. With RRIRWRPPRLPRPRPRPLWPPRP the “shrunken log2 fold change” value was 0.275. In the case of RRIRWRPPRLPRPRPRPLYNPRP, the “shrunken log2 fold change” value is reported as -0.78. In the case of RRIRWRPPRLPRPRPRPMAPPRP, the “shrunken log2 fold change” value is reported as 0.0741. RRIRWRPPRLPRPRPRPMFFPRP was tested, and the “shrunken log2 fold change” value was 0.111. In the case of RRIRWRPPRLPRPRPRPMGAPRP, the “shrunken log2 fold change” value is reported as 0.501. With RRIRWRPPRLPRPRPRPMHHPRP the “shrunken log2 fold change” value was -0.261. With RRIRWRPPRLPRPRPRPMHIPRP the “shrunken log2 fold change” value was 0.0409. With RRIRWRPPRLPRPRPRPMIVPRP the “shrunken log2 fold change” value was 2.28. With RRIRWRPPRLPRPRPRPMKYPRP the “shrunken log2 fold change” value was -0.311. In the case of RRIRWRPPRLPRPRPRPMLNPRP, the “shrunken log2 fold change” value is reported as -0.00515. For RRIRWRPPRLPRPRPRPMMLPRP, the “shrunken log2 fold change” value was 0.309. With RRIRWRPPRLPRPRPRPMMWPRP the “shrunken log2 fold change” value was 0.0342. RRIRWRPPRLPRPRPRPMNEPRP was tested, and the “shrunken log2 fold change” value was 0.0689. RRIRWRPPRLPRPRPRPMPMPRP was tested, and the “shrunken log2 fold change” value was 0.112. For RRIRWRPPRLPRPRPRPMPNPRP, the “shrunken log2 fold change” value was -0.0767. For RRIRWRPPRLPRPRPRPMPRPRP, the “shrunken log2 fold change” value was 0.623. For RRIRWRPPRLPRPRPRPMQIPRP, the “shrunken log2 fold change” value was 0.0922. With RRIRWRPPRLPRPRPRPMQKPRP the “shrunken log2 fold change” value was -0.0122. RRIRWRPPRLPRPRPRPMRCPRP was tested, and the “shrunken log2 fold change” value was 0.353. In the case of RRIRWRPPRLPRPRPRPMREPRP, the “shrunken log2 fold change” value is reported as 1.09. For RRIRWRPPRLPRPRPRPMTIPRP, the “shrunken log2 fold change” value was 0.025. For RRIRWRPPRLPRPRPRPMTKPRP, the “shrunken log2 fold change” value was 0.181. With RRIRWRPPRLPRPRPRPNADPRP the “shrunken log2 fold change” value was 0.466. In the case of RRIRWRPPRLPRPRPRPNCHPRP, the “shrunken log2 fold change” value is reported as 0.0398. For RRIRWRPPRLPRPRPRPNCQPRP, the “shrunken log2 fold change” value was -0.14. For RRIRWRPPRLPRPRPRPNDQPRP, the “shrunken log2 fold change” value was 0.0201. With RRIRWRPPRLPRPRPRPNDSPRP the “shrunken log2 fold change” value was -0.134. RRIRWRPPRLPRPRPRPNFHPRP was tested, and the “shrunken log2 fold change” value was -0.0344. RRIRWRPPRLPRPRPRPNFQPRP was tested, and the “shrunken log2 fold change” value was 0.0517. With RRIRWRPPRLPRPRPRPNGMPRP the “shrunken log2 fold change” value was -0.0595. With RRIRWRPPRLPRPRPRPNGWPRP the “shrunken log2 fold change” value was 0.185. With RRIRWRPPRLPRPRPRPNHPPRP the “shrunken log2 fold change” value was -0.0659. In the case of RRIRWRPPRLPRPRPRPNHWPRP, the “shrunken log2 fold change” value is reported as -0.0748. With RRIRWRPPRLPRPRPRPNICPRP the “shrunken log2 fold change” value was 0.0504. RRIRWRPPRLPRPRPRPNIEPRP was tested, and the “shrunken log2 fold change” value was -0.0429. For RRIRWRPPRLPRPRPRPNKIPRP, the “shrunken log2 fold change” value was -0.432. RRIRWRPPRLPRPRPRPNKLPRP was tested, and the “shrunken log2 fold change” value was -0.277. With RRIRWRPPRLPRPRPRPNLMPRP the “shrunken log2 fold change” value was -0.227. RRIRWRPPRLPRPRPRPNLPPRP was tested, and the “shrunken log2 fold change” value was -0.101. In the case of RRIRWRPPRLPRPRPRPNMPPRP, the “shrunken log2 fold change” value is reported as -0.268. RRIRWRPPRLPRPRPRPNMQPRP was tested, and the “shrunken log2 fold change” value was -0.0262. RRIRWRPPRLPRPRPRPNMRPRP was tested, and the “shrunken log2 fold change” value was 0.0208. For RRIRWRPPRLPRPRPRPNNWPRP, the “shrunken log2 fold change” value was -0.0483. In the case of RRIRWRPPRLPRPRPRPNQQPRP, the “shrunken log2 fold change” value is reported as -0.0465. RRIRWRPPRLPRPRPRPNQRPRP was tested, and the “shrunken log2 fold change” value was 0.181. In the case of RRIRWRPPRLPRPRPRPNRTPRP, the “shrunken log2 fold change” value is reported as 0.121. For RRIRWRPPRLPRPRPRPNVNPRP, the “shrunken log2 fold change” value was -0.171. With RRIRWRPPRLPRPRPRPNVQPRP the “shrunken log2 fold change” value was -0.0399. For RRIRWRPPRLPRPRPRPNYWPRP, the “shrunken log2 fold change” value was 1.21. With RRIRWRPPRLPRPRPRPPAWPRP the “shrunken log2 fold change” value was 0.794. With RRIRWRPPRLPRPRPRPPCFPRP the “shrunken log2 fold change” value was 0.108. RRIRWRPPRLPRPRPRPPCKPRP was tested, and the “shrunken log2 fold change” value was -0.0735. For RRIRWRPPRLPRPRPRPPCMPRP, the “shrunken log2 fold change” value was 0.00553. In the case of RRIRWRPPRLPRPRPRPPEMPRP, the “shrunken log2 fold change” value is reported as 0.812. For RRIRWRPPRLPRPRPRPPERPRP, the “shrunken log2 fold change” value was 0.816. For RRIRWRPPRLPRPRPRPPGGPRP, the “shrunken log2 fold change” value was 0.669. With RRIRWRPPRLPRPRPRPPGNPRP the “shrunken log2 fold change” value was 0.687. For RRIRWRPPRLPRPRPRPPHQPRP, the “shrunken log2 fold change” value was 0.235. RRIRWRPPRLPRPRPRPPHYPRP was tested, and the “shrunken log2 fold change” value was 0.24. With RRIRWRPPRLPRPRPRPPILPRP the “shrunken log2 fold change” value was 0.27. In the case of RRIRWRPPRLPRPRPRPPKFPRP, the “shrunken log2 fold change” value is reported as 0.419. With RRIRWRPPRLPRPRPRPPLDPRP the “shrunken log2 fold change” value was 0.57. In the case of RRIRWRPPRLPRPRPRPPLIPRP, the “shrunken log2 fold change” value is reported as -0.0843. In the case of RRIRWRPPRLPRPRPRPPNKPRP, the “shrunken log2 fold change” value is reported as 0.206. In the case of RRIRWRPPRLPRPRPRPPNSPRP, the “shrunken log2 fold change” value is reported as 0.39. RRIRWRPPRLPRPRPRPPPQPRP was tested, and the “shrunken log2 fold change” value was 0.905. RRIRWRPPRLPRPRPRPPQCPRP was tested, and the “shrunken log2 fold change” value was 0.292. RRIRWRPPRLPRPRPRPPSPPRP was tested, and the “shrunken log2 fold change” value was 0.598. RRIRWRPPRLPRPRPRPPSWPRP was tested, and the “shrunken log2 fold change” value was 1.32.
